The text below walks through data of publication PMC9352680, “A comprehensive thermodynamic model for RNA binding by the Saccharomyces cerevisiae Pumilio protein PUF4”.

For this data set, the target named is T1, PUF4 RNA-binding domain (Saccharomyces cerevisiae, UniProt P25339 537-888).
T1 sequence: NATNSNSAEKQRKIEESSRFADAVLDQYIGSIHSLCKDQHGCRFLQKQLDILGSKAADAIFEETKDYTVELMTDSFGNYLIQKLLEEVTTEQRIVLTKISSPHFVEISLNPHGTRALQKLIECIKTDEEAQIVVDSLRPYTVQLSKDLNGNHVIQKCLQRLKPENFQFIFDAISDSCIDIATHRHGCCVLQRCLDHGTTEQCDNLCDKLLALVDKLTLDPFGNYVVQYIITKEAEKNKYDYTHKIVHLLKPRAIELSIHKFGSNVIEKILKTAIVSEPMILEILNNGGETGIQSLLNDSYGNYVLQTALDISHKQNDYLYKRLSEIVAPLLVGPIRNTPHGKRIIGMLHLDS
Kind of data set: Mg; RNA-MaP; 20 mM Na-HEPES pH 7.4, 30 mM KOAc, 0.75 mM MgCl2, 0.1% Tween-20, 5% glycerol, 0.1 mg/mL BSA, 2 mM DTT; 25 C; 0.0125-409.6 nM protein. The following applies: tags: N-His6-TEV cleaved; C-SNAP kept, Cy3B-labelled; label: tethered on chip by stalled RNA polymerase.

Molecule UCUCUUACACACUUAUUAGCUCUCUU (ssRNA) [Id_ii_S1_P5E.4_K5.3_C5.2_[C-2A]_[T-1C]_H5.3_A5.1_F5.1_T5.2_[T11G]_[A12C]] gave a dissociation constant Kd of over 2300 nM.

UCUCUUUUACACUUAUUAUAUCUCUU (ssRNA) [Id_ii_S1_P5E.4_K5.3_C5.2_[C-2T]_H5.3_A5.1_F5.1_T5.2] came in with a Kd of over 2300 nM.

In the case of UCUCUUUUACACUUAUUAAAUCUCUU (ssRNA) [Id_ii_S1_P5E.4_K5.3_C5.2_[C-2T]_H5.3_A5.1_F5.1_T5.2_[T11A]], the Kd is over 2300 nM.

As to UCUCUUUAACACUUAUUACAUCUCUU (ssRNA) [Id_ii_S1_P5E.4_K5.3_C5.2_[C-2T]_[T-1A]_H5.3_A5.1_F5.1_T5.2_[T11C]], the Kd was over 2300 nM.

With UCUCUUAAACACUUAUUACCUCUCUU (ssRNA) [Id_ii_S1_P5E.4_K5.3_C5.2_[C-2A]_[T-1A]_H5.3_A5.1_F5.1_T5.2_[T11C]_[A12C]], the Kd was over 2300 nM.

UCUCUUAAACACUUAUUACAUCUCUU (ssRNA) [Id_ii_S1_P5E.4_K5.3_C5.2_[C-2A]_[T-1A]_H5.3_A5.1_F5.1_T5.2_[T11C]] showed a Kd of over 2300 nM.

UCUCUUUAACACUUAUUAUAUCUCUU (ssRNA) [Id_ii_S1_P5E.4_K5.3_C5.2_[C-2T]_[T-1A]_H5.3_A5.1_F5.1_T5.2] yielded a Kd of over 2300 nM.

The molecule UCUCUUAGACACUUAUUAAUUCUCUU (ssRNA) [Id_ii_S1_P5E.4_K5.3_C5.2_[C-2A]_[T-1G]_H5.3_A5.1_F5.1_T5.2_[T11A]_[A12T]] showed an equilibrium dissociation constant (Kd) of over 2300 nM.

Molecule UCUCUUAAACACUUAUUACUUCUCUU (ssRNA) [Id_ii_S1_P5E.4_K5.3_C5.2_[C-2A]_[T-1A]_H5.3_A5.1_F5.1_T5.2_[T11C]_[A12T]] returned a Kd of over 2300 nM.

In turn, UCUCUUUUACACUUAUUAUUUCUCUU (ssRNA) [Id_ii_S1_P5E.4_K5.3_C5.2_[C-2T]_H5.3_A5.1_F5.1_T5.2_[A12T]] returned a Kd of over 2300 nM.

Molecule UCUCUUUGUAUUAUCAUCUCUU (ssRNA) [Ia_S1_P5E.1_K5.1_C5.1_H5.1_A5.1_F5.1_[T9C]_T5.1] gave a Kd of 21.9 nM. That is a double-digit nanomolar value.

For the molecule UCUCUUUAACACUUAUUAAUUCUCUU (ssRNA) [Id_ii_S1_P5E.4_K5.3_C5.2_[C-2T]_[T-1A]_H5.3_A5.1_F5.1_T5.2_[T11A]_[A12T]], the Kd was over 2300 nM.

Molecule UCUCUUAUACACUUAUUACAUCUCUU (ssRNA) [Id_ii_S1_P5E.4_K5.3_C5.2_[C-2A]_H5.3_A5.1_F5.1_T5.2_[T11C]] returned a Kd of 489 nM.

For the molecule UCUCUUAGACACUUAUUAUUUCUCUU (ssRNA) [Id_ii_S1_P5E.4_K5.3_C5.2_[C-2A]_[T-1G]_H5.3_A5.1_F5.1_T5.2_[A12T]], the Kd was over 2300 nM.

In turn, UCUCUUUUACACUUAUUAUGUCUCUU (ssRNA) [Id_ii_S1_P5E.4_K5.3_C5.2_[C-2T]_H5.3_A5.1_F5.1_T5.2_[A12G]] yielded a Kd of over 2300 nM.

For the molecule UCUCUUAAACACUUAUUAUAUCUCUU (ssRNA) [Id_ii_S1_P5E.4_K5.3_C5.2_[C-2A]_[T-1A]_H5.3_A5.1_F5.1_T5.2], the Kd is over 2300 nM.

Turning to UCUCUUACACACUUAUUAUUUCUCUU (ssRNA) [Id_ii_S1_P5E.4_K5.3_C5.2_[C-2A]_[T-1C]_H5.3_A5.1_F5.1_T5.2_[A12T]], the Kd was over 2300 nM.

In the case of UCUCUUAUACACUUAUUACGUCUCUU (ssRNA) [Id_ii_S1_P5E.4_K5.3_C5.2_[C-2A]_H5.3_A5.1_F5.1_T5.2_[T11C]_[A12G]], the Kd is 907 nM.

For UCUCUUUCACACUUAUUAUCUCUCUU (ssRNA) [Id_ii_S1_P5E.4_K5.3_C5.2_[C-2T]_[T-1C]_H5.3_A5.1_F5.1_T5.2_[A12C]], the Kd was over 2300 nM.

As to UCUCUUUAACACUUAUUACGUCUCUU (ssRNA) [Id_ii_S1_P5E.4_K5.3_C5.2_[C-2T]_[T-1A]_H5.3_A5.1_F5.1_T5.2_[T11C]_[A12G]], the Kd was over 2300 nM.

In turn, UCUCUUAGACACUUAUUAAAUCUCUU (ssRNA) [Id_ii_S1_P5E.4_K5.3_C5.2_[C-2A]_[T-1G]_H5.3_A5.1_F5.1_T5.2_[T11A]] registered a Kd of over 2300 nM.

Consider UCUCUUAUACACUUAUUAUAUCUCUU (ssRNA) [Id_ii_S1_P5E.4_K5.3_C5.2_[C-2A]_H5.3_A5.1_F5.1_T5.2], for which binding was characterised by a dissociation constant (Kd) of 330 nM.

For the molecule UCUCUUUUACACUUAUUAACUCUCUU (ssRNA) [Id_ii_S1_P5E.4_K5.3_C5.2_[C-2T]_H5.3_A5.1_F5.1_T5.2_[T11A]_[A12C]], the dissociation constant (Kd) is over 2300 nM.

UCUCUUACACACUUAUUAUAUCUCUU (ssRNA) [Id_ii_S1_P5E.4_K5.3_C5.2_[C-2A]_[T-1C]_H5.3_A5.1_F5.1_T5.2] yielded a Kd of over 2300 nM.

UCUCUUUCACACUUAUUAUUUCUCUU (ssRNA) [Id_ii_S1_P5E.4_K5.3_C5.2_[C-2T]_[T-1C]_H5.3_A5.1_F5.1_T5.2_[A12T]]: the dissociation constant Kd is over 2300 nM.

Molecule UCUCUUAUACACUUAUUAAUUCUCUU (ssRNA) [Id_ii_S1_P5E.4_K5.3_C5.2_[C-2A]_H5.3_A5.1_F5.1_T5.2_[T11A]_[A12T]] displayed a Kd of 517 nM.

Molecule UCUCUUUAACACUUAUUAUCUCUCUU (ssRNA) [Id_ii_S1_P5E.4_K5.3_C5.2_[C-2T]_[T-1A]_H5.3_A5.1_F5.1_T5.2_[A12C]] came in with a Kd of over 2300 nM.

In turn, UCUCUUUAACACUUAUUAUUUCUCUU (ssRNA) [Id_ii_S1_P5E.4_K5.3_C5.2_[C-2T]_[T-1A]_H5.3_A5.1_F5.1_T5.2_[A12T]] registered a Kd of over 2300 nM.

As usually defined, the Kd is the constant that tells how readily two partners part at equilibrium. Read a high Kd as weaker binding.
